# Key:
# [1] = target: T1, prostate-specific antigen (PSA) (human, UniProt P07288 25-261); test: ELONA (direct); significant signal from 250 nM, 5 mM MgCl2; ELONA: PSA 250 ng/well adsorbed; aptamers 3.9-500 nM in PBS + 5 mM MgCl2, 1 h at 37 C; block 3% BSA + 100 nM ssDNA mix; wash PBS 0.05% Tween-20; details: protein: commercial; label: biotin; stem-loops nt 4-14 and 17-30 (predicted)
# [2] = target: T1, prostate-specific antigen (PSA); test: ELONA (direct); significant signal from 250 nM; affinity comparable to AS2; 5 mM MgCl2; ELONA: PSA 250 ng/well adsorbed; aptamers 3.9-500 nM in PBS + 5 mM MgCl2, 1 h at 37 C; block 3% BSA + 100 nM ssDNA mix; wash PBS 0.05% Tween-20; details: protein: commercial; label: biotin; 15 bp duplex at 3' end of AS2-tail, 5' overhang 32 nt of AS2-tail
# [3] = target: T1, prostate-specific antigen (PSA); test: DLS and plasmon shift (aggregate disassembly); response down to 10 fM PSA in buffer, 1 pM in filtered plasma; ELONA: PSA 250 ng/well adsorbed; aptamers 3.9-500 nM in PBS + 5 mM MgCl2, 1 h at 37 C; block 3% BSA + 100 nM ssDNA mix; wash PBS 0.05% Tween-20; details: protein: commercial; label: US-AuNP; 15 bp duplex at 3' end of AS2-tail, 5' overhang 32 nt; about 8 ssDNA per particle
# [4] = target: T1, prostate-specific antigen (PSA); test: ELONA (direct); 3.9-500 nM aptamer, 5 mM MgCl2; ELONA: PSA 250 ng/well adsorbed; aptamers 3.9-500 nM in PBS + 5 mM MgCl2, 1 h at 37 C; block 3% BSA + 100 nM ssDNA mix; wash PBS 0.05% Tween-20; details: protein: commercial; label: biotin
# T1 sequence (P07288 25-261): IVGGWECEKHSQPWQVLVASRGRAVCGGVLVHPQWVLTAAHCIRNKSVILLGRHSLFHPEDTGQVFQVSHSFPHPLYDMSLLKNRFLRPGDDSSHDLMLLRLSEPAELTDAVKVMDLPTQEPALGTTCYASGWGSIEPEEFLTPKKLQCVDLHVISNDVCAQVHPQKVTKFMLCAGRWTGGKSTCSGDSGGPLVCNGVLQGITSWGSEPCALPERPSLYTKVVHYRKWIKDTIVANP
binder,measurement,setting,value
"GGGCGGGGCGGACGAGACAGTAAGGGCTGTGGGTGTGGTG (structured_DNA, 3' biotin) [AS2-biotin]",binding result,[1],binds
"AS2-tail-biotin:RevAS2 (mixed, 3' biotin on AS2-tail) DNA: GGGCGGGGCGGACGAGACAGTAAGGGCTGTGGGTGTGGTGTTTTTTT ?: AAAAAAACACCACAC",binding result,[2],binds
"AS2-tail-thio:RevAS2-thio (AS2-US-AuNP-Aggregate) (mixed, 3' thiol on AS2-tail, 5' thiol on RevAS2; conjugated to gold nanoparticles) DNA: GGGCGGGGCGGACGAGACAGTAAGGGCTGTGGGTGTGGTGTTTTTTT ?: AAAAAAACACCACAC",binding result,[3],binds
"ATTAAAGCTCGCCATCAAATAGC (ssDNA, biotin) [aPSA-biotin]",binding result,[4],no binding

# From paper PMC12787490, “PSA-Responsive Aptamer-Based Switchable Aggregates of Ultrasmall Gold Nanoparticles”
